Measured values as given in publication PMC12375889 (Febs Letters, 2025).

Key:
native MS = molecular target: the molecule itself; assay: native MS
SEC = molecular target: the molecule itself; assay: SEC

B1: MvoDUF2193 (natural protein, Methanococcus voltae strain A3, UniProt D7DSA4 1-499, looked up)
chain: MKELYEKMINEAMAAQWADVEVIKAKRGTKYKLTDGKPYVDAVQKMEAIGDQCSEVFDLHKNSVKIHYDTLCDLTDTVRPEDDPFVEHYQTPAILEILYNEDPKFREAVEKFIDSVEKNSALIGKEVVRRYGGFYGPTCVVDFALIPGSTSNIVNQILRKTDISEHYKQAILASKSWGMNTSYGIGDKFAHAVEDGKTLEEAIDEEIKTIKMIYDTPIQAQAKLMEEAGHTSFDVLKYMQDYKKKMESTVKKAIDADVNYANIVTVPAYCVGDISHHIAQSTYNMCKDDVIMAIIEATSKVMDNTLRNNIDKYKSEFDVLSLATGSTAAAVEYILELDGFNAPTVVQLLTRRFHNYVQLYPKRGAAAELHNCDFMDMIYRGWKTLDKARRMKNGSGTKLMPMVNDMPVDLDPIAENEVIMNPQRYAYPACAITVRFSSLMRLSDYPCLLTSEPVTATMMTNAIALHKNNPGAPARVCKKCASSCLVDFRHEYCQWRESV
stoichiometry N (native MS): 2
stoichiometry N (SEC): 4
